This experiment deals with murine GM-CSF receptor (murine) (UniProt Q00941). The experiment is described as follows: cell-based or functional assay.
Sequence of UniProt Q00941 (Q00941 30-388, chain 1 of 2): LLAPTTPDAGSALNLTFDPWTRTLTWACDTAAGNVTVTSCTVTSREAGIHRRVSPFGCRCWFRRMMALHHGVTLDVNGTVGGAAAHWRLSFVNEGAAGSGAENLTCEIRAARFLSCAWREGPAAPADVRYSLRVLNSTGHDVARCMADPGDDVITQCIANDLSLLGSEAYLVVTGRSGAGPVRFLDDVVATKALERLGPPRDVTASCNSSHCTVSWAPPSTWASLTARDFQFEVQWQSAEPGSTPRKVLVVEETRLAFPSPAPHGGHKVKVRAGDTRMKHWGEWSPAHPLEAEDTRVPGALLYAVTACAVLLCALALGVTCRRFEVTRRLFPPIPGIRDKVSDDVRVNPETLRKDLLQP
Sequence of UniProt Q00941 (P26955 23-896, chain 2 of 2, further chain): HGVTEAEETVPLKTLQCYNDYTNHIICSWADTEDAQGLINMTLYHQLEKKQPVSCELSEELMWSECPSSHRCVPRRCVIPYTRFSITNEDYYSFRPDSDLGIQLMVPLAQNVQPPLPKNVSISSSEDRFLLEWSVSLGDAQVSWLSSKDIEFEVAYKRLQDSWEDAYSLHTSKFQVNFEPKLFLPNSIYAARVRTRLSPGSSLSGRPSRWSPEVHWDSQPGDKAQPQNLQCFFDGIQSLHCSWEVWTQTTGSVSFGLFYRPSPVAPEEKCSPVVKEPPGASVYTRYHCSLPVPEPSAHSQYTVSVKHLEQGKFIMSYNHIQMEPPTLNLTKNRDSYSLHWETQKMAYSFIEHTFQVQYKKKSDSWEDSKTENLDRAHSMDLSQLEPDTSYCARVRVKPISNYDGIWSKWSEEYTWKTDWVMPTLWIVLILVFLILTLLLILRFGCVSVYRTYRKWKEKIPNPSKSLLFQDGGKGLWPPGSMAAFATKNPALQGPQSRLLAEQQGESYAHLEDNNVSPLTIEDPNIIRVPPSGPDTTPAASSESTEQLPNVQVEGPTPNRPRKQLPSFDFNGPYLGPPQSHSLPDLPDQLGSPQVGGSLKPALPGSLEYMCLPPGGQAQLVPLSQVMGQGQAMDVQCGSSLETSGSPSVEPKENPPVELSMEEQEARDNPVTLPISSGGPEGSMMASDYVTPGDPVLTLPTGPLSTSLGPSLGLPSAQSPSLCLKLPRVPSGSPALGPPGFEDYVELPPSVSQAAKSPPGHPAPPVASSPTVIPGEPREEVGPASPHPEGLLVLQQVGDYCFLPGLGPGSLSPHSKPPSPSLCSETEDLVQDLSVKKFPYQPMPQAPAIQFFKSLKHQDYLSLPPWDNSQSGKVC

“murine GM-CSF fused to the S. cerevesiae Gas1 GPI modification signal sequence (from UniProt P01587 18-141; P22146 474-559) (other; the values are: proliferation increase vs soluble GM-CSF)” came in with a proliferation of FDC-P1 cells (Biotrak BrdU cell proliferation ELISA) of 25%.

The record behind these values is US20040170960A1.
